Measured values published in patent US20260049134A1 (UNIVERSITY OF FLORIDA RESEARCH FOUNDATION, published 2026).
Where a chain is given by its changes, count along the chain named. Names may count otherwise. Values belong to the binder of their own block, whether it stands above or below them.

Legend:
[1] = target: T1, CADM1-His (Acro Biosystems) (human, UniProt Q9BY67 45-374); assay: ELISA on coated CADM1-His
T1 construct: Bought; also called CADM1/IGSF4A; not shown: His tag of the bought protein
T1 sequence: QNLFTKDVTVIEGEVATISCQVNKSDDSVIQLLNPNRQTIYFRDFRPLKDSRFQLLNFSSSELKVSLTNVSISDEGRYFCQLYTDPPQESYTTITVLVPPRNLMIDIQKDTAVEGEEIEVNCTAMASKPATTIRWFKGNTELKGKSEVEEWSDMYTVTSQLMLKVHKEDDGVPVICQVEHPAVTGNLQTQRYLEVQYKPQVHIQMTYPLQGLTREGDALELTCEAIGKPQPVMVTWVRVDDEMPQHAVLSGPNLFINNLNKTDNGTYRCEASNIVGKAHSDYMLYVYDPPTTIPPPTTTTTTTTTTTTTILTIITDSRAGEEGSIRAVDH
Protocol: (§1) Recombinant purified ECDs (50-150 ng) of each putative target protein were coated, incubated with 150 ng of the indicated primary antibody, and binding was detected using a peroxidase-conjugated anti-human Fab secondary antibody. Heatmap represents averages of technical triplicates. (8B) Target validation via siRNA knockdown. H929 cells were transfected with siRNA pools targeting the putative antibody targets ICAM1, CADM1, and PTPRG. Cells were then subjected to cognate IgG binding analysis via flow cytometry. (NT, non-targeting siRNA).
(§2) ELISA ELISA was conducted as described previously. Briefly, 50-150 ng of antigen was coated overnight in half-area 96-well plates at 4° C., blocked with 3% BSA at 37° C. for 1 h, and 150 ng of chimeric rabbit/human IgG1 was added, incubating for 2 h at 37° C. […] After incubating at 37° C. for 15 min-1 h (depending on intensity of controls), data were acquired using a SpectraMax M5 plate reader (Molecular Devices).

SLAMF7 = target: T2, SLAMF7; assay: ELISA on coated SLAMF7-StrepTag
T2 construct: coated protein in the ELISA; also called SLAMF7-StrepTag
T2 chain: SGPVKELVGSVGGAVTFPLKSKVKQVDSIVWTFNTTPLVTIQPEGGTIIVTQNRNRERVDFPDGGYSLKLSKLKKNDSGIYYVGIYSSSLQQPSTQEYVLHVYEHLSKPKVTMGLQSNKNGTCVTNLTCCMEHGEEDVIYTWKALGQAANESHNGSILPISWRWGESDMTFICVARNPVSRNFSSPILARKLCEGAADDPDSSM
Protocol: as §1, §2

[2] = target: T3, GARS, endogenous in H929 multiple myeloma cells (human, UniProt P41250 37-739, limits assumed); assay: flow cytometry, H929 + CADM1 siRNA; None 449; surface target GARS putative
T3 construct: Native protein pulled down from H929 lysates; also called Glycyl-tRNA synthetase; GlyRS
T3 sequence: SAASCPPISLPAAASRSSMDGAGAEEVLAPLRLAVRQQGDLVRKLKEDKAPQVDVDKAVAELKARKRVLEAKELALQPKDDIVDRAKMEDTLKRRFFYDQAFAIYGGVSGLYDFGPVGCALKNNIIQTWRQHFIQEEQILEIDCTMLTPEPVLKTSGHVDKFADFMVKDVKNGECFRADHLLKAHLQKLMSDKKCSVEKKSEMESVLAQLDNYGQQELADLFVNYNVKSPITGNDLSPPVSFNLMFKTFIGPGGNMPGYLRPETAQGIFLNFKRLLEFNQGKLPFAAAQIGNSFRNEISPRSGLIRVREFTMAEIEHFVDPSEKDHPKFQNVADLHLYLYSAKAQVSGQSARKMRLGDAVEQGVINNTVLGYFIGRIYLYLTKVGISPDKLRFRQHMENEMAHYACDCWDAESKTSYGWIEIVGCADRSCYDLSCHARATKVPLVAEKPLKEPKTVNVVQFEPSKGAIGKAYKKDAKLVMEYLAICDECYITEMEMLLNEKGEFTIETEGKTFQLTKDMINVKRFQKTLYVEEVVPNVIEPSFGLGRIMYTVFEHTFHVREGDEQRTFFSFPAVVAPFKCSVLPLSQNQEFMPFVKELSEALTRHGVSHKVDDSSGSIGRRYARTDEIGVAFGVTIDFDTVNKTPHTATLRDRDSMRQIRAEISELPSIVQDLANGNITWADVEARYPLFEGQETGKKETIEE

[3] = target: T3, GARS, endogenous in H929 multiple …; assay: flow cytometry, H929 + CDH18 siRNA; None 443; surface target GARS putative
[4] = target: T3, GARS, endogenous in H929 multiple …; assay: flow cytometry, H929 + ICAM1 siRNA; None 1.06; surface target GARS putative
[5] = target: T3, GARS, endogenous in H929 multiple …; assay: flow cytometry, H929 + GARS siRNA (siRNA against the putative target); None 452

mAb binding (MFI) [2]: 17000
mAb binding (MFI) [3]: 75300
Cells stained (%) [4]: 76.3%
mAb binding (MFI) [5]: 109000
B5: HW-8 chimeric rabbit-human IgG1 LA/LA/PG (antibody, V domains shown)
VH: QSLEESGGRLVTPGTPLTLTCTVSGFSLSSYAMSWVRQAPGKGLEWIGAISTGGSTTYASWAKGRFTISKTSSTTVDLKMTSLTTEDTATYFCVRHFRLWGPGTLVTISS
VL: QVLTQTPSSVSAAVGGTVTIKCQASQSIGSALAWFQQKPGQRPKLLIYRASNLASGVPSRFKGSGSGTEFALTISGVQREDAATYYCLGGAAAVWAFGAGTNVEIKR
notes: Fc-silenced (L234A/L235A/P329G) IgG1, kappa; Alexa Fluor 647-labeled in single-step flow cytometry; Cluster C-45
binding result (SLAMF7): no binding (tested: 150 ng IgG1 per well)

mAb binding (MFI) [2]: 45900
mAb binding (MFI) [3]: 174000
Cells stained (%) [4]: 98.1%
mAb binding (MFI) [5]: 155000
B6: HW-16 chimeric rabbit-human IgG1 LA/LA/PG (antibody, V domains shown)
VH: QSLEESGGRLVTPGTPLTLTCTASGFSLSSYAMSWVRQAPGKGLEWIGTMPTGGGTYYASWAKGRFTISKTSTTVDLQITSPTTEDTATYFCAKHWNIWGPGTLVTISS
VL: DIVLTQTPSSTSTAVGDTVTINCRASQSIGRNLAWFQQKPGQPPKLLIYRASNLASGVPSRFKGSGSRTQFTLTISGVQREDAATYYCLGSYSSSDTAFGGGTELEILR
notes: as for B5
binding result [1]: no binding (tested: 150 ng IgG1 per well)

The remaining lines, values behind:

B1: HW-81 chimeric rabbit-human IgG1 LA/LA/PG (antibody, V domains shown)
VH: QKQLVESGGGLVTPGGTLTLTCTVSGFSLSSNGVSWVRQAPGKGLEYIGLIRSIGSTYYATWAKGRFTISKTSTTVDLKITSPTTEDTATYFCARGGYRNGFKLWGPGTLVTVSS
VL: QPVLTQSPSVSAALGASAKLTCTLSSAHKTYYIEWYQQQHPGKAPRYLMQLQSDGSYTKGTGVPDRFSGSSSGADRYLIISSVQAEDEADYICGVIDSAVYVFGGGTQLTVTG
notes: Fc-silenced (L234A/L235A/P329G) IgG1, lambda; Alexa Fluor 647-labeled in single-step flow cytometry; Cluster C-45
binding result [1]: no binding (tested: 150 ng IgG1 per well)
binding result (SLAMF7): no binding (tested: 150 ng IgG1 per well)
mAb binding (MFI) [2]: 696000
mAb binding (MFI) [3]: 193000
Cells stained (%) [4]: 99.1%
mAb binding (MFI) [5]: 216000

B2: HW-56 chimeric rabbit-human IgG1 LA/LA/PG (antibody, V domains shown)
VH: QSVKESEGGLFKPTDTLTLTCTASGFTVSTNAVTWVRQAPGNGLEYIGTIGRSGSAYFASWAKRRSTLTRDINLNTVTLKMTSLTAADTATYFCVRGSPGYRTAISIWGPGTLVTISS
VL: AVMTQTPSSTSAAVEGTVTINCQASQSISNRLSWFQQKPGQPPKLLIYQASTLASGVPSRFKGSGSGTEFTLTISGVQREDAATYYCLGSYSSSDASFGGGTKLEIKR
notes: as for B5
binding result [1]: no binding (tested: 150 ng IgG1 per well)
mAb binding (MFI) [2]: 547000
mAb binding (MFI) [3]: 400000
Cells stained (%) [4]: 99.2%
mAb binding (MFI) [5]: 413000

B3: HW-28 chimeric rabbit-human IgG1 LA/LA/PG (antibody, V domains shown)
VH: QKQLVESGGRLVTPGTPLTLTCTASGFSLSSNAMSWVRQAPGEGLQWIGTISSGGSTYYASWAKGRFTISKTSTTVTLKMTSLTTEDTATYFCARGADLHRLWGPGTLVTVSS
VL: SFVLTQPASVQVNLGQTVSLTCTGKPLSRSFASWYQQKPGQAPVLVIYRDTSRPSGVPDRFSGSSSGNTATLTISGAQAGDEADYYCATSDGSGSSYQYVFGGGTQLTVTG
notes: as for B1
mAb binding (MFI) [2]: 66800
mAb binding (MFI) [3]: 164000
Cells stained (%) [4]: 96.9%
mAb binding (MFI) [5]: 170000

B4: HW-45 chimeric rabbit-human IgG1 LA/LA/PG (antibody, V domains shown)
VH: QKQLVESGGRLVTPGTPLTLTCTVSGFSLSSYAMGWFRQAPGKGLEWIGIINSYGSTYYASWAKGRFTISKTSTTVDLKITSPTTEDTATYFCGRRIGSARFDPWGPGTLVTVSS
VL: B3 VL with G24A, K25D, P26T, F31Y, V46L, S52R, Q98R, Y99L
notes: Fc-silenced (L234A/L235A/P329G) IgG1, lambda; Alexa Fluor 647-labeled in single-step flow cytometry; Prototype of cluster C-45
mAb binding (MFI) [2]: 33400
mAb binding (MFI) [3]: 59600
Cells stained (%) [4]: 95.1%
mAb binding (MFI) [5]: 76900
